Results published in US20220227830A1, “QD DOSING OF GIP RECEPTOR AGONIST PEPTIDE COMPOUNDS AND USES THEREOF” (Takeda Pharmaceutical Company Limited, priority 2020, published 2022).
Starred links: 1 amine or outer side, 2 acyl side, 3 side chain; linkers in the order of their positions; H or OH if unused. Non-standard residues stand in square brackets, D forms with d. Groups on a side chain read outwards from the residue. No end group written: not given here. *: point of attachment. 2OEGgEgE‑C15DA = 2OEGgEgE-C15 diacid linker-lipid on the Lys side chain, O=C(O)CCCCCCCCCCCCCC(=O)N[C@@H](CCC(=O)N[C@@H](CCC(=O)NCCOCCOCC(=O)NCCOCCOCC(=O)*)C(=O)O)C(=O)O; 2OEGgE‑C16DA = O=C(O)CCCCCCCCCCCCCCC(=O)N[C@@H](CCC(=O)NCCOCCOCC(=O)NCCOCCOCC(=O)*)C(=O)O; G2E3 = linker of 2 Gly and 3 Glu (read GGEEE); C15 diacid = O=C(O)CCCCCCCCCCCCCC(=O)*; γGlu = O=C(O)[C@H](CCC(=O)[*:2])N[*:1]; NMeY = CN[C@@H](Cc1ccc(O)cc1)C(=O)O; AEEA = NCCOCCOCC(=O)O; Aib = CC(C)(N)C(=O)O

T1: full-length human GIPR with an N-terminal FLAG tag (human, UniProt P48546 22-466)
T1 sequence (looked up): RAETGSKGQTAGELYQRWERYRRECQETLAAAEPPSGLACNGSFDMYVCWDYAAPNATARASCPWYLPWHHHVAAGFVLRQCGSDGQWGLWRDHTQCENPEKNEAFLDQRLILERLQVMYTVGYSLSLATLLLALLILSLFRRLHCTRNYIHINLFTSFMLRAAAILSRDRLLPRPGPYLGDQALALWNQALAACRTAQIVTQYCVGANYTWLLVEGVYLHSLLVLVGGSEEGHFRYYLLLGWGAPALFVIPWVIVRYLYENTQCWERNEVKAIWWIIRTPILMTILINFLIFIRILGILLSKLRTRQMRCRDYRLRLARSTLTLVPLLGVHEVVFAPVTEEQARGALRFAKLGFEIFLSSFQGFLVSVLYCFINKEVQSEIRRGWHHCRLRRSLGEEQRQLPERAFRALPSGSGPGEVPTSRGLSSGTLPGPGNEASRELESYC

B1: Compound 142 (peptide)
peptide: YXEGTFISDYSIXXDRXAQXDFVNWLLAQRG
modifications: Me-Tyr1; Aib 2,13,17,20; Km14 = Lys(GGGGG-C15 diacid) (Table 3 prints the linker 'GS'); C-term OH
B2: Compound 59 (peptide)
peptide: Y[Aib]EGTFISDYSI[Aib]KDR[Aib]AQ[Aib]NFVNWLLAQR-NH2
modifications: not fully specified (residues 1, 14)
B3: Compound 79 (peptide)
peptide: [NMeY][Aib]EGTFISDYSIAK([G5-γGlu-C15 diacid])DR[Aib]AQ[Aib]DFVNWLLAQSPSSGAPPPS-NH2
B4: Compound 1 (peptide)
peptide: [NMeY][Aib]EGTFISDYSIAK(2OEGgE‑C16DA)DR[Aib]AQQNFVNWLLAQK
B5: Compound 50 (peptide)
peptide: Y[Aib]EGTFISDYSIAKDR[Aib]AQ[Aib]NFVNWLLAQRPSSGAPPPS-OH
modifications: not fully specified (residues 1, 14); also: Me-Tyr methyl position not given here
B6: Compound 49 (peptide)
peptide: Y[Aib]EGTFISDYSIAK([G2E3-C15 diacid])DR[Aib]AQ[Aib]NFVNWLLAQRPSSGAPPPS-OH
modifications: not fully specified (residue 1); also: Me-Tyr methyl position not given here
B7: Compound 143 (peptide)
peptide: Me-Y[Aib]EGTFISDYSIALDR[Aib]AQ[Aib]KFVNWLLAQKG-OH
modifications: not fully specified (residues 1, 21)
B8: Compound 148 (peptide)
peptide: Me-Y[Aib]EGTFISDYSIALDR[Aib]AQ[Aib]KFVNWLLAQKG-OH
modifications: not fully specified (residues 1, 21)
B9: Compound 21 (peptide)
peptide: Me-Y[Aib]EGTFISDYSI[Aib]LDR[Aib]AQ[Aib]NFVNWLLAQK([2OEG-γGlu-γGlu-C15 diacid])PSSGAPPPS-NH2
B10: Compound 20 (peptide)
peptide: Me-Y[Aib]EGTFISDYSI[Aib]LDRKAQ[Aib]NFVNWLLAQRPSSGAPPPS-NH2
modifications: not fully specified (residues 1, 17)
B11: Compound 113 (peptide)
peptide: [NMeY][Aib]EGTFISDYSI[Aib]LDR[Aib]AQ[Aib]K([Gly-Gly-Glu-Glu-Glu-C15 diacid])FVNWLLAQK-NH2
B12: Compound 19 (peptide)
peptide: Me-Y[Aib]EGTFISDYSI[Aib]K([AEEA-AEEA-γGlu-γGlu-C15 diacid])DR[Aib]AQ[Aib]NFVNWLLAQRPSSGAPPPS-NH2
B13: Compound 25 (peptide)
peptide: [NMeY][Aib]EGTFISDYSIALDR[Aib]AQ[Aib]K([AEEA-AEEA-γGlu-γGlu-C15 diacid])FVNWLLAQKG-OH
modifications: N-terminus assumed
SMILES: CC[C@H](C)[C@H](NC(=O)[C@H](CO)NC(=O)[C@H](Cc1ccc(O)cc1)NC(=O)[C@H](CC(=O)O)NC(=O)[C@H](CO)NC(=O)[C@@H](NC(=O)[C@H](Cc1ccccc1)NC(=O)[C@@H](NC(=O)CNC(=O)[C@H](CCC(=O)O)NC(=O)C(C)(C)NC(=O)[C@H](Cc1ccc(O)cc1)NC)[C@@H](C)O)[C@@H](C)CC)C(=O)N[C@@H](C)C(=O)N[C@@H](CC(C)C)C(=O)N[C@@H](CC(=O)O)C(=O)N[C@@H](CCCNC(=N)N)C(=O)NC(C)(C)C(=O)N[C@@H](C)C(=O)N[C@@H](CCC(N)=O)C(=O)NC(C)(C)C(=O)N[C@@H](CCCCNC(=O)COCCOCCNC(=O)COCCOCCNC(=O)CC[C@H](NC(=O)CC[C@H](NC(=O)CCCCCCCCCCCCCC(=O)O)C(=O)O)C(=O)O)C(=O)N[C@@H](Cc1ccccc1)C(=O)N[C@H](C(=O)N[C@@H](CC(N)=O)C(=O)N[C@@H](Cc1c[nH]c2ccccc12)C(=O)N[C@@H](CC(C)C)C(=O)N[C@@H](CC(C)C)C(=O)N[C@@H](C)C(=O)N[C@@H](CCC(N)=O)C(=O)N[C@@H](CCCCN)C(=O)NCC(=O)O)C(C)C
B14: Compound 54 (peptide)
peptide: [NMeY][Aib]EGTFISDYSIALDRKAQ[Aib]NFVNWLLAQSPSSGAPPPS-OH
modifications: not fully specified (residue 17)
B15: Compound 17 (peptide)
peptide: Me-Y[Aib]EGTFISDYSIALDR[Aib]K([AEEA-AEEA-γGlu-γGlu-C15 diacid])Q[Aib]NFVNWLLAQSPSSGAPPPS-NH2
B16: Compound 2 (peptide)
peptide: [NMeY][Aib]EGTFISDYSIAKDR[Aib]AQQNFVNWLLAQK
modifications: not fully specified (residue 14, N-terminus)
B17: Compound 14 (peptide)
peptide: [NMeY][Aib]EGTFISDYSIALDR[Aib]AQ[Aib]K([AEEA-AEEA-γGlu-γGlu-C15 diacid])FVNWLLAQR-NH2
modifications: not fully specified (N-terminus); also: C-term NH2 in mods, C_TER column prints OH
B18: Compound 35 (peptide)
peptide: [NMeY][Aib]EGTFISDYSIALDK[Aib]AQ[Aib]NFVNWLLAK([AEEA-AEEA-γGlu-C15 diacid])S-OH
modifications: not fully specified
B19: Compound 111 (peptide)
peptide: [NMeY][Aib]EGTFISDYSI[Aib]LDR[Aib]K(2OEGgEgE‑C15DA)Q[Aib]NFVNWLLAQSPSSGAPPPS-NH2
modifications: N-terminus assumed
SMILES: CC[C@H](C)[C@H](NC(=O)[C@H](Cc1ccccc1)NC(=O)[C@@H](NC(=O)CNC(=O)[C@H](CCC(=O)O)NC(=O)C(C)(C)NC(=O)[C@H](Cc1ccc(O)cc1)NC)[C@@H](C)O)C(=O)N[C@@H](CO)C(=O)N[C@@H](CC(=O)O)C(=O)N[C@@H](Cc1ccc(O)cc1)C(=O)N[C@@H](CO)C(=O)N[C@H](C(=O)NC(C)(C)C(=O)N[C@@H](CC(C)C)C(=O)N[C@@H](CC(=O)O)C(=O)N[C@@H](CCCNC(=N)N)C(=O)NC(C)(C)C(=O)N[C@@H](CCCCNC(=O)COCCOCCNC(=O)COCCOCCNC(=O)CC[C@H](NC(=O)CC[C@H](NC(=O)CCCCCCCCCCCCCC(=O)O)C(=O)O)C(=O)O)C(=O)N[C@@H](CCC(N)=O)C(=O)NC(C)(C)C(=O)N[C@@H](CC(N)=O)C(=O)N[C@@H](Cc1ccccc1)C(=O)N[C@H](C(=O)N[C@@H](CC(N)=O)C(=O)N[C@@H](Cc1c[nH]c2ccccc12)C(=O)N[C@@H](CC(C)C)C(=O)N[C@@H](CC(C)C)C(=O)N[C@@H](C)C(=O)N[C@@H](CCC(N)=O)C(=O)N[C@@H](CO)C(=O)N1CCC[C@H]1C(=O)N[C@@H](CO)C(=O)N[C@@H](CO)C(=O)NCC(=O)N[C@@H](C)C(=O)N1CCC[C@H]1C(=O)N1CCC[C@H]1C(=O)N1CCC[C@H]1C(=O)N[C@@H](CO)C(N)=O)C(C)C)[C@@H](C)CC
B20: Compound 144 (peptide)
peptide: Me-Y[Aib]EGTFISDYSIALDR[Aib]KQ[Aib]NFVNWLLAQSPSSGAPPPS-NH2
modifications: not fully specified (residues 1, 18)
B21: Compound 120 (peptide)
peptide: [NMeY][Aib]EGTFISDYSI[Aib]KDR[Aib]AQ[Aib]NFVNWLLAQRPSSGAPPPS-NH2
modifications: not fully specified (residue 14)
B22: Compound 3 (peptide)
peptide: [NMeY][Aib]EGTFISDYSIAKDR[Aib]AQQNFVNWLLAQK
modifications: not fully specified (residue 14)
B23: Compound 86 (peptide)
peptide: [NMeY][Aib]EGTFISDYSIALDR[Aib]AQ[Aib]K([AEEA-γGlu-γGlu-C15 diacid])FVNWLLAQR-NH2
modifications: N-terminus assumed
SMILES: CC[C@H](C)[C@H](NC(=O)[C@H](CO)NC(=O)[C@H](Cc1ccc(O)cc1)NC(=O)[C@H](CC(=O)O)NC(=O)[C@H](CO)NC(=O)[C@@H](NC(=O)[C@H](Cc1ccccc1)NC(=O)[C@@H](NC(=O)CNC(=O)[C@H](CCC(=O)O)NC(=O)C(C)(C)NC(=O)[C@H](Cc1ccc(O)cc1)NC)[C@@H](C)O)[C@@H](C)CC)C(=O)N[C@@H](C)C(=O)N[C@@H](CC(C)C)C(=O)N[C@@H](CC(=O)O)C(=O)N[C@@H](CCCNC(=N)N)C(=O)NC(C)(C)C(=O)N[C@@H](C)C(=O)N[C@@H](CCC(N)=O)C(=O)NC(C)(C)C(=O)N[C@@H](CCCCNC(=O)COCCOCCNC(=O)CC[C@H](NC(=O)CC[C@H](NC(=O)CCCCCCCCCCCCCC(=O)O)C(=O)O)C(=O)O)C(=O)N[C@@H](Cc1ccccc1)C(=O)N[C@H](C(=O)N[C@@H](CC(N)=O)C(=O)N[C@@H](Cc1c[nH]c2ccccc12)C(=O)N[C@@H](CC(C)C)C(=O)N[C@@H](CC(C)C)C(=O)N[C@@H](C)C(=O)N[C@@H](CCC(N)=O)C(=O)N[C@@H](CCCNC(=N)N)C(N)=O)C(C)C

Tests used:
[1] = molecular target: T1, full-length human GIPR with an …; assay: cell-based or functional assay
[2] = molecular target: full-length human GLP-1R with an N-terminal FLAG tag (human, UniProt P43220 24-463); assay: cell-based or functional assay

Binder | Human GIPR cAMP, HEK293T EC50 [1] [nM] | Human GLP1R cAMP HEK293T EC50 [2] [nM]
B1 | 0.0001 | –
B2 | 0.0004 | –
B3 | 0.0002 | –
B4 | – | 871
B5 | 0.0004 | –
B6 | 0.0002 | –
B7 | 0.0004 | –
B8 | 0.0011 | –
B9 | 0.0003 | –
B10 | 0.0003 | –
B11 | 0.0004 | –
B12 | 0.0004 | –
B13 | 0.0005 | –
B14 | 0.0001 | –
B15 | 0.0004 | –
B16 | – | 1000
B17 | 0.0004 | –
B18 | 0.0003 | –
B19 | 0.0004 | –
B20 | 0.0001 | –
B21 | 0.0004 | –
B22 | – | 692
B23 | 0.0014 | –
